From article PMC7145421

Molecular target: PKR (endogenous) (UniProt Q03963)
Test: FLAG co-immunoprecipitation, western blot
Settings: reference: FLAG-WT PACT; sites S246

binding against the reference: weaker
Substance: PACT (FLAG-tagged wild type and mutant constructs) (from UniProt O75569) FLAG-S246A PACT
